B1: 14-3-3 protein sigma (Homo sapiens), P31947 (parent)
chain: MERASLIQKAKLAEQAERYEDMAAFMKGAVEKGEELSCEERNLLSVAYKNVVGGQRAAWRVLSSIEQKSNEEGSEEKGPEVREYREKVETELQGVCDTVLGLLDSHLIKEAGDAESRVFYLKMKGDYYRYLAEVATGDDKKRIIDSARSAYQEAMDISKKEMPPTNPIRLGLALNFSVFHYEIANSPEEAISLAKTTFDEAMADLHTLSEDSYKDSTLIMQLLRDNLTLWTADNAGEEGGEAPQEPQS
partner: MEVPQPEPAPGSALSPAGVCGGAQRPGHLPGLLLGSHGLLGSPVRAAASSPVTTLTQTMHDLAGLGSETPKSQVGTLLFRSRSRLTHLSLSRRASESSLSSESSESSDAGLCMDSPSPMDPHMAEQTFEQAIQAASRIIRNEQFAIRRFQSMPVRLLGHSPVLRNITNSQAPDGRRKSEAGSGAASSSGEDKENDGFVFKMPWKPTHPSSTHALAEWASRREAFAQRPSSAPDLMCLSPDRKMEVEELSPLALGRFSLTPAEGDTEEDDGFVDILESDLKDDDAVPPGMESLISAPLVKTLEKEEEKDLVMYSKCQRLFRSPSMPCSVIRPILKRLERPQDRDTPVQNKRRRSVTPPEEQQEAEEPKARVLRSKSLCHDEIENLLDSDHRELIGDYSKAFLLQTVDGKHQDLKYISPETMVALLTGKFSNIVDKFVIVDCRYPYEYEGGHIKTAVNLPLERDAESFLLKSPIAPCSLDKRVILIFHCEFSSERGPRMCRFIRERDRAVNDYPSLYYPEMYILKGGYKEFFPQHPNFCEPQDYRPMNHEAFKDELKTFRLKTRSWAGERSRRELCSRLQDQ
B2: Serine/arginine-rich splicing factor 10 (Homo sapiens), O75494 (parent)
chain: MSRYLRPPNTSLFVRNVADDTRSEDLRREFGRYGPIVDVYVPLDFYTRRPRGFAYVQFEDVRDAEDALHNLDRKWICGRQIEIQFAQGDRKTPNQMKAKEGRNVYSSSRYDDYDRYRRSRSRSYERRRSRSRSFDYNYRRSYSPRNSRPTGRPRRSRSHSDNDRFKHRNRSFSRSKSNSRSRSKSQPKKEMKAKSRSRSASHTKTRGTSKTDSKTHYKSGSRYEKESRKKEPPRSKSQSRSQSRSRSKSRSRSWTSPKSSGH
partner: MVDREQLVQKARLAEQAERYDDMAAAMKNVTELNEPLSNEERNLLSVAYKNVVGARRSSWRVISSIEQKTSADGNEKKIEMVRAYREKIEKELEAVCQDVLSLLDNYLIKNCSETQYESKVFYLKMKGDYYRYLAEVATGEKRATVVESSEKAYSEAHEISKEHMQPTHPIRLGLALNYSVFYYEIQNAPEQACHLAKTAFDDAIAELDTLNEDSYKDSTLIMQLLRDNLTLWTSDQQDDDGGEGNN
B3: 14-3-3 protein sigma (Homo sapiens), P31947 (parent)
chain: B1 chain
partner: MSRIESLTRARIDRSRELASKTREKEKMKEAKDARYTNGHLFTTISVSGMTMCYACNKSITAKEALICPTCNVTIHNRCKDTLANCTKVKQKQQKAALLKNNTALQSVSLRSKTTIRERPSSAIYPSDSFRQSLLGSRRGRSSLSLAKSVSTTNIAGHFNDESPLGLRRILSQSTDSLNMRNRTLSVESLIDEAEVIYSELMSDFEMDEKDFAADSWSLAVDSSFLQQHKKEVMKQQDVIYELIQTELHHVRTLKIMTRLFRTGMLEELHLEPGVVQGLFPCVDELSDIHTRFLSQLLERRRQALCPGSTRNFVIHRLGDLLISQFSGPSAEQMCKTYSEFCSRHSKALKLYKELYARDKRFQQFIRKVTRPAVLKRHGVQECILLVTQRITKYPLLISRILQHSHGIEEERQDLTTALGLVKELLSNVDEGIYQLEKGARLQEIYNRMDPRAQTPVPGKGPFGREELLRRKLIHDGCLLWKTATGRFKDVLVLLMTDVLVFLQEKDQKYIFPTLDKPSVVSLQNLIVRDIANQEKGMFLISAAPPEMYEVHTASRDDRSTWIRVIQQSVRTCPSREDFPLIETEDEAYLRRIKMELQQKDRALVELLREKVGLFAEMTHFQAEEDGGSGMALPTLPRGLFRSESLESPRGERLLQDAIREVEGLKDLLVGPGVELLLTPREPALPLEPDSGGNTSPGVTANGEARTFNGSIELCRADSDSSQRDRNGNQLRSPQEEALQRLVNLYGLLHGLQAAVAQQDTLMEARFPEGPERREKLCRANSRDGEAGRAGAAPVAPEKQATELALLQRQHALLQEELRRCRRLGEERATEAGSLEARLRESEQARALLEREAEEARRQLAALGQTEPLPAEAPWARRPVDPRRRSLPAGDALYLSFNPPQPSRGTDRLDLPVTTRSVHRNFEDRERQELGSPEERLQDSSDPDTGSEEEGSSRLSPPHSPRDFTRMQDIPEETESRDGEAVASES
B4: 14-3-3 protein sigma (Homo sapiens), P31947 (parent)
chain: B1 chain
partner: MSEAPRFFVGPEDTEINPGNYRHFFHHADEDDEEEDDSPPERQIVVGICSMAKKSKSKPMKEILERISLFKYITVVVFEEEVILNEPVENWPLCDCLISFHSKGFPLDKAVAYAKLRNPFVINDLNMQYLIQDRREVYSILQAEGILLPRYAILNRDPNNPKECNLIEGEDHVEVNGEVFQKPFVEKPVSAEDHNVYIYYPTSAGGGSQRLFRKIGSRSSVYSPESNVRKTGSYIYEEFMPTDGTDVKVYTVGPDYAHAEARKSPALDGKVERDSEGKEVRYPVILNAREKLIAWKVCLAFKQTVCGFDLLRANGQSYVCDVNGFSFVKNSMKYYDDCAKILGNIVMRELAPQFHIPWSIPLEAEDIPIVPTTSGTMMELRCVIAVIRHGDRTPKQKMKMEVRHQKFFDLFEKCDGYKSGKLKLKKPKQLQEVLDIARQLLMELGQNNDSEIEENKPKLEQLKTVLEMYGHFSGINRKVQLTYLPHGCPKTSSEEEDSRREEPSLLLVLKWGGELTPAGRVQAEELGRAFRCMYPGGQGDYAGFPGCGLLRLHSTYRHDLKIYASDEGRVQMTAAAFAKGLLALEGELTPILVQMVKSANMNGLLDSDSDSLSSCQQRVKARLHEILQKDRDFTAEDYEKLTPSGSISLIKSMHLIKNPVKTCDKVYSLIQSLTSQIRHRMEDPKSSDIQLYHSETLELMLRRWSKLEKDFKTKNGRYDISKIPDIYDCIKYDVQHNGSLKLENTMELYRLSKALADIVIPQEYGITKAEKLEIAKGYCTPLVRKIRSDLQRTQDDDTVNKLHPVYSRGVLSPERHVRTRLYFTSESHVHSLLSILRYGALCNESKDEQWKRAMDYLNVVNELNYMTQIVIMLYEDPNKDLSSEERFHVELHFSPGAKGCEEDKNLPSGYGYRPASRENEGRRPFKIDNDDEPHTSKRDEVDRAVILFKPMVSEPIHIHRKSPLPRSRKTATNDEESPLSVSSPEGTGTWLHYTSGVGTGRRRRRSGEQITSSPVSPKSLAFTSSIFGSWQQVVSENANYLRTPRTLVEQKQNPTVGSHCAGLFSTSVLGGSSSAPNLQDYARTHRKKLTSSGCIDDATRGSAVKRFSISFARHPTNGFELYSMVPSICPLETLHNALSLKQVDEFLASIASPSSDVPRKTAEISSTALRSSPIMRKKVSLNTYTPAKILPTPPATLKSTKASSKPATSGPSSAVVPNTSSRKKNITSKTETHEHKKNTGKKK
B5: Serine/threonine-protein kinase PAK 5 (Homo sapiens), Q9P286 (parent)
chain: MFGKKKKKIEISGPSNFEHRVHTGFDPQEQKFTGLPQQWHSLLADTANRPKPMVDPSCITPIQLAPMKTIVRGNKPCKETSINGLLEDFDNISVTRSNSLRKESPPTPDQGASSHGPGHAEENGFITFSQYSSESDTTADYTTEKYREKSLYGDDLDPYYRGSHAAKQNGHVMKMKHGEAYYSEVKPLKSDFARFSADYHSHLDSLSKPSEYSDLKWEYQRASSSSPLDYSFQFTPSRTAGTSGCSKESLAYSESEWGPSLDDYDRRPKSSYLNQTSPQPTMRQRSRSGSGLQEPMMPFGASAFKTHPQGHSYNSYTYPRLSEPTMCIPKVDYDRAQMVLSPPLSGSDTYPRGPAKLPQSQSKSGYSSSSHQYPSGYHKATLYHHPSLQSSSQYISTASYLSSLSLSSSTYPPPSWGSSSDQQPSRVSHEQFRAALQLVVSPGDPREYLANFIKIGEGSTGIVCIATEKHTGKQVAVKKMDLRKQQRRELLFNEVVIMRDYHHDNVVDMYSSYLVGDELWVVMEFLEGGALTDIVTHTRMNEEQIATVCLSVLRALSYLHNQGVIHRDIKSDSILLTSDGRIKLSDFGFCAQVSKEVPKRKSLVGTPYWMAPEVISRLPYGTEVDIWSLGIMVIEMIDGEPPYFNEPPLQAMRRIRDSLPPRVKDLHKVSSVLRGFLDLMLVREPSQRATAQELLGHPFLKLAGPPSCIVPLMRQYRHH
partner: B2 partner

Variants of: B1
Conditions: with mpip2_human CDC25B

| effect of a mutation on the interaction | Variant |
| --- | --- |
| decreasing interaction strength | MERASLIQKAKLAEQAERYEDMAAFMKGAVEKGEELSCEERNLLSVAYENVVGGQEAAWRVLSSIEQKSNEEGSEEKGPEVREYREKVETELQGVCDTVLGLLDSHLIKEAGDAESRVFYLKMKGDYYRYLAEVATGDDKKRIIDSARSAYQEAMDISKKEMPPTNPIRLGLALNFSDFHYEIANSPEEAISLAKTTFDEAMADLHTLSEDSYKDSTLIMQLLRDNLTLWTADNAGEEGGEAPQEPQS [K49E;R56E;V178D] |

Variants of: B2
Conditions: with 1433g_human YWHAG

| effect of a mutation on the interaction | Variant |
| --- | --- |
| disrupting interaction strength | S121A;S123A;S131A;S133A;S143A;S158A;S160A;S199A;S201A;S249A;S253A;T255A |

Variants of: B3
Conditions: with arhg2_human ARHGEF2, Q92974

| effect of a mutation on the interaction | Variant |
| --- | --- |
| decreasing interaction strength | MERASLIQKAKLAEQAERYEDMAAFMKGAVEKGEELSCEERNLLSVAYENVVGGQEAAWRVLSSIEQKSNEEGSEEKGPEVREYREKVETELQGVCDTVLGLLDSHLIKEAGDAESRVFYLKMKGDYYRYLAEVATGDDKKRIIDSARSAYQEAMDISKKEMPPTNPIRLGLALNFSDFHYEIANSPEEAISLAKTTFDEAMADLHTLSEDSYKDSTLIMQLLRDNLTLWTADNAGEEGGEAPQEPQS [K49E;R56E;V178D] |

Variants of: B4
Conditions: with vip2_human PPIP5K2, O43314

| effect of a mutation on the interaction | Variant |
| --- | --- |
| decreasing interaction strength | MERASLIQKAKLAEQAERYEDMAAFMKGAVEKGEELSCEERNLLSVAYENVVGGQEAAWRVLSSIEQKSNEEGSEEKGPEVREYREKVETELQGVCDTVLGLLDSHLIKEAGDAESRVFYLKMKGDYYRYLAEVATGDDKKRIIDSARSAYQEAMDISKKEMPPTNPIRLGLALNFSDFHYEIANSPEEAISLAKTTFDEAMADLHTLSEDSYKDSTLIMQLLRDNLTLWTADNAGEEGGEAPQEPQS [K49E;R56E;V178D] |

Variants of: B5
Conditions: with 1433g_human YWHAG

| effect of a mutation on the interaction | Variant |
| --- | --- |
| decreasing interaction strength | S99A;S270A;S290A;T317A;T349A |
